Values of other authors in article PMC8910669.

Target: SARS-CoV-2 spike RBD RBD (Severe acute respiratory syndrome coronavirus 2) (UniProt P0DTC2)

Substance: hBD-2 (from UniProt O15263)
- Kd: 300 nM
